Reference: PMC10896696 (The Journal of Cell Biology, 2024)
Where a chain is given by its changes, count along the chain named. Values belong to the binder of their own block, whether it stands above or below them.

Target: MBP-tag-fused HER2 intracellular domain (ICD, 712 aa-1255 aa) (human, UniProt P04626 712-1255)
Assay: SPR

- Kd: 4.24 nM
B1: MBP-tag-fused intracellular domain (ICD) of WT TβRI (148 aa-503 aa) (domain or fragment, human, UniProt P36897 148-503, looked up)
chain: CHNRTVIHHRVPNEEDPSLDRPFISEGTTLKDLIYDMTTSGSGSGLPLLVQRTIARTIVLQESIGKGRFGEVWRGKWRGEEVAVKIFSSREERSWFREAEIYQTVMLRHENILGFIAADNKDNGTWTQLWLVSDYHEHGSLFDYLNRYTVTVEGMIKLALSTASGLAHLHMEIVGTQGKPAIAHRDLKSKNILVKKNGTCCIADLGLAVRHDSATDTIDIAPNHRVGTKRYMAPEVLDDSINMKHFESFKRADIYAMGLVFWEIARRCSIGGIHEDYQLPYYDLVPSDPSVEEMRKVVCEQKLRPNIPNRWQSCEALRVMAKIMRECWYANGAARLTALRIKKTLSQLSQQEGIKM

- Kd: 2.68 nM
B2: MBP-tag-fused intracellular domain (ICD) of activated (GGD) TβRI (148 aa-503 aa) (domain or fragment, human, UniProt P36897 148-503, looked up)
chain: B1 chain with L46G, P47G, T57D
